B1: Mothers against decapentaplegic homolog 3 (Homo sapiens), P84022 (parent)
chain: MSSILPFTPPIVKRLLGWKKGEQNGQEEKWCEKAVKSLVKKLKKTGQLDELEKAITTQNVNTKCITIPRSLDGRLQVSHRKGLPHVIYCRLWRWPDLHSHHELRAMELCEFAFNMKKDEVCVNPYHYQRVETPVLPPVLVPRHTEIPAEFPPLDDYSHSIPENTNFPAGIEPQSNIPETPPPGYLSEDGETSDHQMNHSMDAGSPNLSPNPMSPAHNNLDLQPVTYCEPAFWCSISYYELNQRVGETFHASQPSMTVDGFTDPSNSERFCLGLLSNVNRNAAVELTRRHIGRGVRLYYIGGEVFAECLSDSAIFVQSPNCNQRYGWHPATVCKIPPGCNLKIFNNQEFAALLAQSVNQGFEAVYQLTRMCTIRMSFVKGWGAEYRRQTVTSTPCWIELHLNGPLQWLDKVLTQMGSPSIRCSSVS
partner: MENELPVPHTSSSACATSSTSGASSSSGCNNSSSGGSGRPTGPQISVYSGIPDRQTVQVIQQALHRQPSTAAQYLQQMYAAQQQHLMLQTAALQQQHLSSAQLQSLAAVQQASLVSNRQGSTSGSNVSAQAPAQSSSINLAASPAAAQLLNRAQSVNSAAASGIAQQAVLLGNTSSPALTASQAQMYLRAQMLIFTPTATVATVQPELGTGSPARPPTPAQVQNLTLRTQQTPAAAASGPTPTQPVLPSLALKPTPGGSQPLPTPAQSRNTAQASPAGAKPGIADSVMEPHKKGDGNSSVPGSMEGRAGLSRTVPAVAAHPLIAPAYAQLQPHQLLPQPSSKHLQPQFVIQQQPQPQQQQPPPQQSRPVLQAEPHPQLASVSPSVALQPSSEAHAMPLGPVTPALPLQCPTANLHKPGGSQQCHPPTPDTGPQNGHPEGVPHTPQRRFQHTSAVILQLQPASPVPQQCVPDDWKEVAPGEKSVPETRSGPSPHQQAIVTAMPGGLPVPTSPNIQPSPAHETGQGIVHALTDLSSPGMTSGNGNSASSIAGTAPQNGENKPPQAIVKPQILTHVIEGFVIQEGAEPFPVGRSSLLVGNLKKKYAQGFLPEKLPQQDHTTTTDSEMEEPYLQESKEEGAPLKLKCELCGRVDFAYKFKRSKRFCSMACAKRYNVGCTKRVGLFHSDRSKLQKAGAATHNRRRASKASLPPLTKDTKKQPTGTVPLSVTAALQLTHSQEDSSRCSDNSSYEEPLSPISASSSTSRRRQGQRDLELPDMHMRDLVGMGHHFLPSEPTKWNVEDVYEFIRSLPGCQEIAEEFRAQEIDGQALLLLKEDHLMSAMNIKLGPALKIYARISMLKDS
B2: Proton-coupled zinc antiporter SLC30A2 (Homo sapiens), Q9BRI3 (parent)
chain: MEAKEKQHLLDARPAIRSYTGSLWQEGAGWIPLPRPGLDLQAIELAAQSNHHCHAQKGPDSHCDPKKGKAQRQLYVASAICLLFMIGEVVGGYLAHSLAVMTDAAHLLTDFASMLISLFSLWMSSRPATKTMNFGWQRAEILGALVSVLSIWVVTGVLVYLAVERLISGDYEIDGGTMLITSGCAVAVNIIMGLTLHQSGHGHSHGTTNQQEENPSVRAAFIHVIGDFMQSMGVLVAAYILYFKPEYKYVDPICTFVFSILVLGTTLTILRDVILVLMEGTPKGVDFTAVRDLLLSVEGVEALHSLHIWALTVAQPVLSVHIAIAQNTDAQAVLKTASSRLQGKFHFHTVTIQIEDYSEDMKDCQACQGPSD
partner: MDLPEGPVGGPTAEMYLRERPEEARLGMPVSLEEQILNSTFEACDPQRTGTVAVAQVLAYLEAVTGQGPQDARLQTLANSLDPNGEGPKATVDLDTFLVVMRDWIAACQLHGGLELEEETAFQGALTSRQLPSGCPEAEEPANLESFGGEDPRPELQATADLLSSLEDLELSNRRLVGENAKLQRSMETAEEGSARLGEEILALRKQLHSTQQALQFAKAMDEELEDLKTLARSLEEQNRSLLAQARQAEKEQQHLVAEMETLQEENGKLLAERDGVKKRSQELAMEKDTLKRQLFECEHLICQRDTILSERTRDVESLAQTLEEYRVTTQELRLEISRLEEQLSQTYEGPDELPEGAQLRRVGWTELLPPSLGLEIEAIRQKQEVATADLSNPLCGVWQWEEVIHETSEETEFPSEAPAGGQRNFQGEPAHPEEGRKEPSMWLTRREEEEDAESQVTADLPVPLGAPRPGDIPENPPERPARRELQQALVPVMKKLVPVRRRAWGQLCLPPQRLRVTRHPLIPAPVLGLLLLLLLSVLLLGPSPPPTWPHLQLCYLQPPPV
B3: SWI/SNF-related matrix-associated actin-dependent regulator of chromatin subfamily A member 2 (Homo sapiens), P51531-1 (parent)
chain: MSTPTDPGAMPHPGPSPGPGPSPGPILGPSPGPGPSPGSVHSMMGPSPGPPSVSHPMPTMGSTDFPQEGMHQMHKPIDGIHDKGIVEDIHCGSMKGTGMRPPHPGMGPPQSPMDQHSQGYMSPHPSPLGAPEHVSSPMSGGGPTPPQMPPSQPGALIPGDPQAMSQPNRGPSPFSPVQLHQLRAQILAYKMLARGQPLPETLQLAVQGKRTLPGLQQQQQQQQQQQQQQQQQQQQQQQPQQQPPQPQTQQQQQPALVNYNRPSGPGPELSGPSTPQKLPVPAPGGRPSPAPPAAAQPPAAAVPGPSVPQPAPGQPSPVLQLQQKQSRISPIQKPQGLDPVEILQEREYRLQARIAHRIQELENLPGSLPPDLRTKATVELKALRLLNFQRQLRQEVVACMRRDTTLETALNSKAYKRSKRQTLREARMTEKLEKQQKIEQERKRRQKHQEYLNSILQHAKDFKEYHRSVAGKIQKLSKAVATWHANTEREQKKETERIEKERMRRLMAEDEEGYRKLIDQKKDRRLAYLLQQTDEYVANLTNLVWEHKQAQAAKEKKKRRRRKKKAEENAEGGESALGPDGEPIDESSQMSDLPVKVTHTETGKVLFGPEAPKASQLDAWLEMNPGYEVAPRSDSEESDSDYEEEDEEEESSRQETEEKILLDPNSEEVSEKDAKQIIETAKQDVDDEYSMQYSARGSQSYYTVAHAISERVEKQSALLINGTLKHYQLQGLEWMVSLYNNNLNGILADEMGLGKTIQTIALITYLMEHKRLNGPYLIIVPLSTLSNWTYEFDKWAPSVVKISYKGTPAMRRSLVPQLRSGKFNVLLTTYEYIIKDKHILAKIRWKYMIVDEGHRMKNHHCKLTQVLNTHYVAPRRILLTGTPLQNKLPELWALLNFLLPTIFKSCSTFEQWFNAPFAMTGERVDLNEEETILIIRRLHKVLRPFLLRRLKKEVESQLPEKVEYVIKCDMSALQKILYRHMQAKGILLTDGSEKDKKGKGGAKTLMNTIMQLRKICNHPYMFQHIEESFAEHLGYSNGVINGAELYRASGKFELLDRILPKLRATNHRVLLFCQMTSLMTIMEDYFAFRNFLYLRLDGTTKSEDRAALLKKFNEPGSQYFIFLLSTRAGGLGLNLQAADTVVIFDSDWNPHQDLQAQDRAHRIGQQNEVRVLRLCTVNSVEEKILAAAKYKLNVDQKVIQAGMFDQKSSSHERRAFLQAILEHEEENEEEDEVPDDETLNQMIARREEEFDLFMRMDMDRRREDARNPKRKPRLMEEDELPSWIIKDDAEVERLTCEEEEEKIFGRGSRQRRDVDYSDALTEKQWLRAIEDGNLEEMEEEVRLKKRKRRRNVDKDPAKEDVEKAKKRRGRPPAEKLSPNPPKLTKQMNAIIDTVINYKDRCNVEKVPSNSQLEIEGNSSGRQLSEVFIQLPSRKELPEYYELIRKPVDFKKIKERIRNHKYRSLGDLEKDVMLLCHNAQTFNLEGSQIYEDSIVLQSVFKSARQKIAKEEESEDESNEEEEEEDEEESESEAKSVKVKIKLNKKDDKGRDKGKGKKRPNRGKAKPVVSDFDSDEEQDEREQSEGSGTDDE
partner: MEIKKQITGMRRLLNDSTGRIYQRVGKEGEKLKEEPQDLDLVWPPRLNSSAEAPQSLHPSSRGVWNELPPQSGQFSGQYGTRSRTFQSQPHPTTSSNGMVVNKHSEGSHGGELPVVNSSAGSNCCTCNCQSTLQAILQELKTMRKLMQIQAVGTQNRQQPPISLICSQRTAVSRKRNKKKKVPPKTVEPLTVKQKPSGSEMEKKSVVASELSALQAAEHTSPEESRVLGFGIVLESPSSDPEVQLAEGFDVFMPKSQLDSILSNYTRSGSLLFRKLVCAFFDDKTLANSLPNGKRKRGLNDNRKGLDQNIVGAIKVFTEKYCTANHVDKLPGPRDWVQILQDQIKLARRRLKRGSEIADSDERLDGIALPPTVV
B4: Emerin (Homo sapiens), P50402 (parent)
chain: MDNYADLSDTELTTLLRRYNIPHGPVVGSTRRLYEKKIFEYETQRRRLSPPSSSAASSYSFSDLNSTRGDADMYDLPKKEDALLYQSKGYNDDYYEESYFTTRTYGEPESAGPSRAVRQSVTSFPDADAFHHQVHDDDLLSSSEEECKDRERPMYGRDSAYQSITHYRPVSASRSSLDLSYYPTSSSTSFMSSSSSSSSWLTRRAIRPENRAPGAGLGQDRQVPLWGQLLLFLVFVIVLFFIYHFMQAEEGNPF
partner: B2 partner

Variants of: B1
Details: with PHC2, Q8IXK0-5
For I170V, the “effect of a mutation on the interaction” value was “with no effect”.

Variants of: B2
Details: with kash5_human KASH5, Q8N6L0
In the case of MEAKEKQHLLDARPAIRSYTGSLWQEGAGWIPLPRPGLDLQAIELAAQSNHHCRAQKGPDSHCDPKKGKAQRQLYVASAICLLFMIGEVVGGYLAHSLAVMTDAAHLLTDFASMLISLFSLWMSSRPATKTMNFGWQRAEILGALVSVLSIWVVTGVLVYLAVERLISGDYEIDGGTMLITSGCAVAVNIIMGLTLHQSGHGHSHGTTNQQEENPSVRAAFIHVIGDFMQSMGVLVAAYILYFKPEYKYVDPICTFVFSILVLGTTLTILRDVILVLMEGTPKGVDFTAVRDLLLSVEGVEALHSLHIWALTVAQPVLSVHIAIAQNTDAQAVLKTASSRLQGKFHFHTVTIQIEDYSEDMKDCQACQGPSD [H54R], the “effect of a mutation on the interaction” value is reported as “with no effect”.

Variants of: B3
Details: with BEND7, Q8N7W2-2
With D1546E the “effect of a mutation on the interaction” value was “with no effect”.

Variants of: B3
Details: with BEND7, Q8N7W2-2
Remark: another data set of the same source
With D1546E the “effect of a mutation on the interaction” value was “with no effect”.

Variants of: B4
Details: with kash5_human KASH5, Q8N6L0
For MDNYADLSDTELTTLLRRYNIPHGPVVGSTRRLYEKKIFEYETQRRRLSPPSSFAASSYSFSDLNSTRGDADMYDLPKKEDALLYQSKGYNDDYYEESYFTTRTYGEPESAGPSRAVRQSVTSFPDADAFHHQVHDDDLLSSSEEECKDRERPMYGRDSAYQSITHYRPVSASRSSLDLSYYPTSSSTSFMSSSSSSSSWLTRRAIRPENRAPGAGLGQDRQVPLWGQLLLFLVFVIVLFFIYHFMQAEEGNPF [S54F], the “effect of a mutation on the interaction” value was “with no effect”.
For MDNYADLSDTELTTLLRRYNIPHGPVVGSTRRLYEKKIFEYETQRRRLSPPSSSAASSYSFSDLNSTRGDAVMYDLPKKEDALLYQSKGYNDDYYEESYFTTRTYGEPESAGPSRAVRQSVTSFPDADAFHHQVHDDDLLSSSEEECKDRERPMYGRDSAYQSITHYRPVSASRSSLDLSYYPTSSSTSFMSSSSSSSSWLTRRAIRPENRAPGAGLGQDRQVPLWGQLLLFLVFVIVLFFIYHFMQAEEGNPF [D72V], the “effect of a mutation on the interaction” value was “with no effect”.
